Experimental data as given in patent publication US20250130225A1, “SUBSTRATES FOR IMAGING GLUCOCEREBROSIDASE ACTIVITY” (SIMON FRASER UNIVERSITY, priority 2021, published 2025).

Legend:
Assay in all cases: In-vitro kinetic assay with purified recombinant GCase
Format in all cases: biochemical
Details in all cases: other: 30° C., citrate-phosphate buffer 150 mM, pH 5.4, 0.25% taurodeoxycholate, GCase 2.5 nM
[1] = substrate: COc1cc(/N=N/c2ccc(C)cc2[N+](=O)[O-])c(C)cc1/N=N/c1ccc(N(C)CCCC(=O)NCCCO[C@@H]2O[C@H](COCc3cn(CCCNC(=O)[C@H](CCCCN(C)C)NC(=O)CCC4=[N+]5C(=Cc6c(C)cc(C)n6[B-]5(F)F)C=C4)nn3)[C@@H](O)[C@H](O)[C@H]2O)cc1
Experimental: (§1) In-vitro kinetic assay for substrate 1. Continuous assays were performed at 30° C. in citrate-phosphate buffer (150 mM; pH 5.4) containing 0.25% taurodeoxycholate. The concentrations of substrate 1 used in assays were 0.39, 0.78, 1.56, 3.13 6.25, 12.5, 25 and 50 μM. Reactions were initiated by the addition of purified recombinant GCase (2.5 nM, R&D Systems) and the reaction was monitored continuously over 1200 seconds to determine the initial rate of change of fluorescence. Standard curves were constructed using BODIPY® Fl-acid using the same buffer conditions. […] Assays were carried out in triplicate.
as §1, with “Comparative In-vitro” for “In-vitro”, “substrate 3 and 9b.” for “substrate 1.”, “of substrates 3 and 9b” for “of substrate 1”, “were 0.156, 0.313, 0.625, 1.25, 2.5, 5, 10,” for “were 0.39, 0.78, 1.56, 3.13 6.25, 12.5, 25”, “and 20” for “and 50”, “using TAMRA and BODIPY-576” for “using BODIPY® Fl-acid”

[2] = substrate: COc1cc(/N=N/c2ccc([N+](=O)[O-])cc2)c(OC)cc1/N=N/c1ccc(N(C)CCCC(=O)NCCc2ccc(O[C@@H]3O[C@H](COCCCCn4cc(CNC(=O)[C@H](CCCCN(C)C)NC(=O)c5ccc(-c6c7ccc(=[N+](C)C)cc-7oc7cc(N(C)C)ccc67)c(C(=O)O)c5)nn4)[C@@H](O)[C@H](O)[C@H]3O)cc2)cc1
Experimental: as §1
as §1, with “Comparative In-vitro” for “In-vitro”, “substrate 3 and 9b.” for “substrate 1.”, “of substrates 3 and 9b” for “of substrate 1”, “were 0.156, 0.313, 0.625, 1.25, 2.5, 5, 10,” for “were 0.39, 0.78, 1.56, 3.13 6.25, 12.5, 25”, “and 20” for “and 50”, “using TAMRA and BODIPY-576” for “using BODIPY® Fl-acid”

[3] = substrate: COc1cc(/N=N/c2ccc([N+](=O)[O-])cc2)c(OC)cc1/N=N/c1ccc(N(C)CCCC(=O)NCCCO[C@@H]2O[C@H](COCc3cn(CCNC(=O)CCC4=[N+]5C(=Cc6ccc(-c7ccc[nH]7)n6[B-]5(F)F)C=C4)nn3)[C@@H](O)[C@H](O)[C@H]2O)cc1
Experimental: as §1
as §1, with “Comparative In-vitro” for “In-vitro”, “substrate 3 and 9b.” for “substrate 1.”, “of substrates 3 and 9b” for “of substrate 1”, “were 0.156, 0.313, 0.625, 1.25, 2.5, 5, 10,” for “were 0.39, 0.78, 1.56, 3.13 6.25, 12.5, 25”, “and 20” for “and 50”, “using TAMRA and BODIPY-576” for “using BODIPY® Fl-acid”

B1: purified recombinant GCase (Homo sapiens) (protein)
chain: ARPCIPKSFGYSSVVCVCNATYCDSFDPPTFPALGTFSRYESTRSGRRMELSMGPIQANHTGTGLLLTLQPEQKFQKVKGFGGAMTDAAALNILALSPPAQNLLLKSYFSEEGIGYNIIRVPMASCDFSIRTYTYADTPDDFQLHNFSLPEEDTKLKIPLIHRALQLAQRPVSLLASPWTSPTWLKTNGAVNGKGSLKGQPGDIYHQTWARYFVKFLDAYAEHKLQFWAVTAENEPSAGLLSGYPFQCLGFTPEHQRDFIARDLGPTLANSTHHNVRLLMLDDQRLLLPHWAKVVLTDPEAAKYVHGIAVHWYLDFLAPAKATLGETHRLFPNTMLFASEACVGSKFWEQSVRLGSWDRGMQYSHSIITNLLYHVVGWTDWNLALNPEGGPNWVRNFVDSPIIVDITKDTFYKQPMFYHLGHFSKFIPEGSQRVGLVASQKNDLDAVALMHPDGSAVVVVLNRSSKDVPLTIKDPAVGFLETISPGYSIHTYLWRRQ
notes: purchased R&D Systems
[1]
  kcat/Km: 1300 ± 33 M⁻¹ s⁻¹
[2]
  kcat/Km: 22670 M⁻¹ s⁻¹
[3]
  kcat/Km: 4350 M⁻¹ s⁻¹
